The text below walks through data of patent US20170267766A1 (PIERRE FABRE MEDICAMENT, published 2017).

Assay [1] has as its target T1, human IGF-1R (native, on cells) (human, UniProt P08069 31-1367).
T1 construct: also called hIGF-1R; native IGF-1R on MCF-7 cells
The assay can be described thus: FACS, MCF7, 4°C, Ab 5 ug/ml. As to the method:
Additionally an internalization assay was performed in order to select only internalizing antibodies. For this assay, the MCF7 tumor cell line was cultured in RMPI 1640 without phenol red with 1% L-glutamine and 10% of […] for 3 days before experiment. Cells were then detached using trypsin and 100 μl of a cell suspension at 4·10⁵ cell/ml are plated in 96-multiwell plates in RPMI1640 without phenol red with 1% L-glutamine and 5% FBS. After a 2 min centrifugation at 2000 rpm, cells were resupended in 50 μl of hybridoma supernatant or control antibody solutions (positive and isotype controls at 1 μg/ml). After a 20 min incubation time at 4° C., cells were centrifuged 2 min at 2000 rpm and resuspended in either cold (4° C.) or warm (37° C.) complete culture medium. Cells were then incubated for 2 hours either at 37° C. or at 4° C. Then cells were washed three times with FACS buffer. An Alexa 488-labeled goat anti-mouse IgG antibody was incubated for 20 minutes and cells were washed three times before FACS analysis on propidium iodide negative cell population.
In general terms: A flow cytometer gives signals particle by particle.

For assay [2], the target named is T2, rhIR protein (R&D Systems, cat No 1544-IR/CF) (human, UniProt P06213-2 28-944).
T2 construct: extracellular domain; bought; also called rh Insulin R; recombinant human Insulin Receptor
Briefly: ELISA, coated rhIR 1 ug/ml. As to the method:
(§1) In addition three ELISA were performed (either before or after cloning) to study the binding of antibodies on the recombinant human (hIGF-1R) and murine (mIGF-1R) proteins, and on the recombinant human Insulin Receptor (hIR) protein. […] The plates were then blocked with PBS containing 0.5% gelatin (#22151, Serva Electrophoresis GmbH, Heidelberg, Germany) for 2 h at 37° C. Once the saturation buffer discarded by flicking plates, 100 μl of each supernatant dilution were added to the wells (either undiluted hybridoma supernatant either supernatant serial dilutions) and incubated for 1 h at 37° C. […] Then, ELISA plates were washed 3-times and the TMB (#UP664782, Uptima, Interchim, France) substrate is added. After a 10 min incubation time at room temperature, the reaction was stopped using 1 M sulfuric acid and the optical density at 450 nm is measured.

For assay [3], the target named is T3, rmIGF-1R protein (R&D Systems, cat No 6630-GR/Fc) (murine, UniProt Q60751 31-936).
T3 construct: extracellular domain; bought; also called murine extracellular domain (ECD) of IGF-1R; not shown: Fc only implied by the catalogue number; not described
Briefly: ELISA, coated rm IGF-1R, SNT 5 ug/ml. How it is done: as §1
For orientation: An ELISA detects its analyte on a solid surface through an enzyme-linked reagent.

The target in assay [4] is T1, human IGF-1R (native, on cells). Briefly: FACS, Tf hIGF1R+ cells, Ab 5 ug/ml.
The target is the same in assay [5]. The assay can be described thus: cell-based or functional assay.
Assay [6] deals with T4, monkey IGF-1R (on COS-7 cells) (African green monkey).
T4 construct: whole, on cells
Briefly: FACS, Cos-7 (monkey IGF1R+), Ab 5 ug/ml.

The target of assay [7] is T1, human IGF-1R (native, on cells). The assay can be described thus: cell-based or functional assay. This is another data set of the same source.
The target in assay [8] is T3, rmIGF-1R protein (R&D Systems, cat No …). Briefly: ELISA, coated rmIGF-1R (Table 8). As to the method: as §1
The target of assay [9] is T4, monkey IGF-1R (on COS-7 cells). The assay can be described thus: cell-based or functional assay.
Assay [10] has as its target T5, human insulin receptor (on cells) (human, UniProt P06213 28-1382).
T5 construct: whole, on cells; on stably transfected cells or on IM9 cells; also called hIR; IR
Briefly: FACS on hIR+ transfected cells, 4°C. As to the method:
In order to verify the absence of binding of both murine and chimeric antibodies on hIR, a stable cell line expressing the human IR was used. The recognition of human cell surface hIR by both murine and chimeric Ab was performed by FACS analyses. Increasing concentrations of either the murine or the chimeric mAbs were incubated on the hIR′ transfected cell line for 20 minutes at 4° C. in FACS buffer (PBS, 0.1% BSA, 0.01% NaN₃). Cells were then washed 3 times and incubated with the appropriate secondary antibody coupled with Alexa 488 before being incubated for 20 additional minutes at 4° C. in the dark and then washed 3 times in FACS buffer. The binding of anti-IGF-1R antibodies was immediately performed on viable cells which were identified using propidium iodide (that stains dead cells). The binding EC₅₀ expressed in molarity (M) was calculated using a nonlinear regression analysis (GraphPad Prims 4.0). […] The c9G4 was introduced as an irrelevant antibody (isotype control).

The target of assay [11] is T1, human IGF-1R (native, on cells). Briefly: FACS titration, hIGF-1R transfected cells. How it is done: Briefly, increasing concentrations of chimeric mAbs were incubated with cells for 20 min at 4° C. in FACS buffer (PBS, 0.1% BSA, 0.01% NaN₃). Cells were then washed 3 times and incubated with the appropriate secondary antibody coupled with Alexa 488 before being incubated for 20 additional minutes at 4° C. in the dark and then washed 3 times in FACS buffer. The binding of anti-IGF-1R antibodies was immediately performed on viable cells which were identified using propidium iodide (that stains dead cells). The binding EC₅₀ expressed in molarity (M) was calculated using a nonlinear regression analysis (GraphPad Prims 4.0).

For assay [12] the target is unchanged. The assay can be described thus: cell-based or functional assay. This is another data set of the same source.
Assay [13] has the same target. The assay can be described thus: FACS titration, MCF-7. How it is done: The binding properties of a series of anti-IGF-1R antibodies were evaluated by FACS analyses on the human MCF-7 breast adenocarcinoma cell line (ATCC#HTB-22) using increasing antibody concentrations. For that purpose, cells (1×10⁶ cells/ml) were incubated with anti-IGF-1R antibodies for 20 min. at 4° C. in FACS buffer (PBS, 0.1% BSA, 0.01% NaN₃). They were then washed 3 times and incubated with the appropriate secondary antibody coupled with Alexa 488 for 20 additional minutes at 4° C. in the dark before being washed 3 times in FACS buffer. The binding of anti-IGF-1R antibodies was immediately performed on viable cells which were identified using propidium iodide (that stains dead cells). The maximum of signal intensity obtained with each antibody was designed as Bₘₐₓ and expressed in mean of fluorescence intensity (MFI). The EC₅₀ of binding expressed in molarity (M) was calculated using a nonlinear regression analysis (GraphPad Prims 4.0).

In general, EC50 refers to the concentration needed to bring the measured effect to its halfway point.

Where only a bound is given, the exact number is not on record here.

T3 sequence (Q60751 31-936): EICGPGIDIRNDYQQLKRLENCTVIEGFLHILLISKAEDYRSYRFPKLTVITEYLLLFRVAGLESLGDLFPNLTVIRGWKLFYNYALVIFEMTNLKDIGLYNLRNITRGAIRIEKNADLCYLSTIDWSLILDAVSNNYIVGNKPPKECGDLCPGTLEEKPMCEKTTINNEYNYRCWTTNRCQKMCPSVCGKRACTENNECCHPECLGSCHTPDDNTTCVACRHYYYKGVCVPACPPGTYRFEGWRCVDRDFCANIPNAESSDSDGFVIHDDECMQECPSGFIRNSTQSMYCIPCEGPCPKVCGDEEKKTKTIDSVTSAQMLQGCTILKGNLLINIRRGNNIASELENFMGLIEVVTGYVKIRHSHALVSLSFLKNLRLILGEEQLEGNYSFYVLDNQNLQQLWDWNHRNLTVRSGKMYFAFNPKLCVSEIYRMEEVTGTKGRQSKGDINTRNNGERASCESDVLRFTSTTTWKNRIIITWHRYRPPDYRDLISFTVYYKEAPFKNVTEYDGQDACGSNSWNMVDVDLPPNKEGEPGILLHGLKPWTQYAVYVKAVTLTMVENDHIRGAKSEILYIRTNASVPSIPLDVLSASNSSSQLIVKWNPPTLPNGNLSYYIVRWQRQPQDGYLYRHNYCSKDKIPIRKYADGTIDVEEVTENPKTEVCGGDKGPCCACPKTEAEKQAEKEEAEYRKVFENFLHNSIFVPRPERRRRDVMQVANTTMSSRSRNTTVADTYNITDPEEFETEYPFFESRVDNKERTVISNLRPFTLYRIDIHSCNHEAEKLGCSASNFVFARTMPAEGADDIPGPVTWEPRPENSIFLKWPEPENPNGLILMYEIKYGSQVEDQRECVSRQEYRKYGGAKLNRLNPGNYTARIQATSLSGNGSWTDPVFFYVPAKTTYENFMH

B1: m212A11 (antibody, V domains shown)
VH: QVQLQQSGPELVKPGASVKMSCKASGYTFTSYYIHWVKQRPGQGLEWIGWIWPGDGSTKYNEKFKGKTTLTADKSSSTAYMFLSSLTSEDSAVYFCASPMITPNYAMDYWGQGASVTVSS
VL: DIQMTQTTSSLSASLGDRVTISCRASQDINKYLNWYQQQPDGTVKLLIYYTSRLHSGVPSRFSGRGSGTDYSLTISNLEQEDIATYFCQQGSTLPYTFGGGTKLEIK
notes: murine mAb, hybridoma CNCM I-4773, group G2
Regarding B1, the “MFI 4°C” value in assay [1] came out at 390 MFI. The binding result in assay [2] is “no binding”; in [8] it was “no binding”; in [10], “no binding (tested: log [M] about -6.5 (about 3e-7 M))”. The “D.O 450 nm” value in [3] stood at 0.102 D.O 450 nm. Also, the values for the MFI in assay [4] and in assay [6] were 2190 MFI and 125 MFI, respectively. Further, in [5], the “HalfLife (decay of cell-surface bound antibody on MCF-7 at 37°C)” value was 14.3 min (unit from p-0380; none on the sheet). In addition, the “hIGF-1R phosphorylation in response to IGF-1 (western blot, MCF-7)” value in assay [7] is above 80%. In addition, the “% internalisation” value in assay [9] came out at 73%. The molecule further yielded a ΔMFI in assay [9] of 83 MFI.

B2: c212A11 (antibody, human IgG1, kappa, V domains shown)
VH: QVQLQQSGPELVKPGASVKMSCKASGYTFTSYYIHWVKQRPGQGLEWIGWIWPGDGSTKYNEKFKGKTTLTADKSSSTAYMFLSSLTSEDSAVYFCASPMITPNYAMDYWGQGASVTVSS
VL: DIQMTQTTSSLSASLGDRVTISCRASQDINKYLNWYQQQPDGTVKLLIYYTSRLHSGVPSRFSGRGSGTDYSLTISNLEQEDIATYFCQQGSTLPYTFGGGTKLEIKR
notes: group G2; also called chimeric 212A11
For the molecule B2, in assay [11], the Bmax is 2510 MFI and the EC50 was found to be 440 pM. Also, in assay [12], the “% Internalization (MCF-7, 10 µg/ml, 4 h)” value stood at 80% and the ΔMFI is 322 MFI. Further, in [13], the Bmax is 991 MFI and the EC50 stood at 670 pM. In addition, the “hIGF-1R phosphorylation, % of that induced by IGF-1 (MCF-7, Ab 10 µg/ml)” value (“hIGF-1R phosphorylation, %” for short) in assay [7] was below 20%. In addition, in assay [9], the “% internalisation” value was 75% and the ΔMFI is 98 MFI.

B3: c219D6 (antibody, human IgG1, kappa, V domains shown)
VH: QVQLQQSGPELVKPGDSVKMSCKASGYSFTSYFIHWVKQRPGQGLEWIGWIWPGDGSTKYNEKFKGKTTLTTDKSSSTAYMFLNSLTSEDSAVYFCASPMITPNYAMDYWGQGASVTVSS
VL: DIQMTQTTSSLSASLGDRVTISCRASQDISKYLNWYQQQPDGTVKLLIYYTSRLHSGVPSRFSGRGSGTDYSLTISNLEQEDIATYFCQQGSTLPYTFGGGTKLEIKR
notes: group G2; also called chimeric 219D6
Turning to B3, in assay [11], the Bmax came out at 2520 MFI and the EC50 was determined as 550 pM. In assay [12], the “% Internalization (MCF-7, 10 µg/ml, 4 h)” value was found to be 80% and the ΔMFI was determined as 353 MFI. For the same molecule, in assay [13], the Bmax was 993 MFI and the EC50 came to 470 pM. In addition, the “hIGF-1R phosphorylation, %” value in [7] is below 20%. Further, in assay [9], the “% internalisation” value is 74% and the ΔMFI came to 102 MFI.

B4: c214F8 (antibody, human IgG1, kappa)
heavy: not shown
light: DIQMTQTTSSLSASLGDRVTFSCRASQDISKYLNWYQQQPDGTIKLLIYYTSRLHSGVPSRFSGRGSGTDYSLTITNLEQEDIATYFCQQGSALPYTFGGGTKLEIKRTVAAPSVFIFPPSDEQLKSGTASVVCLLNNFYPREAKVQWKVDNALQSGNSQESVTEQDSKDSTYSLSSTLTLSKADYEKHKVYACEVTHQGLSSPVTKSFNRGEC
notes: group G2; also called chimeric 214F8
As for B4, in assay [11], the Bmax is 2090 MFI and the EC50 is 270 pM. In assay [12], the “% Internalization (MCF-7, 10 µg/ml, 4 h)” value came to 87% and the ΔMFI stood at 403 MFI. In [13], this molecule yielded a Bmax of 1070 MFI and an EC50 of 500 pM. In addition, the “hIGF-1R phosphorylation, %” value in assay [7] was below 20%. In assay [9], the “% internalisation” value turned out to be 72% and the ΔMFI stood at 98 MFI.

B5: m219D6 (antibody, V domains shown)
VH: QVQLQQSGPELVKPGDSVKMSCKASGYSFTSYFIHWVKQRPGQGLEWIGWIWPGDGSTKYNEKFKGKTTLTTDKSSSTAYMFLNSLTSEDSAVYFCASPMITPNYAMDYWGQGASVTVSS
VL: DIQMTQTTSSLSASLGDRVTISCRASQDISKYLNWYQQQPDGTVKLLIYYTSRLHSGVPSRFSGRGSGTDYSLTISNLEQEDIATYFCQQGSTLPYTFGGGTKLEIK
notes: murine mAb, hybridoma CNCM I-4736, group G2
For the molecule B5, the “MFI 4°C” value in assay [1] came to 349 MFI. Also, the binding result in [2] was “no binding”; in [8], “no binding”; in assay [10] it was “no binding (tested: log [M] about -6.5 (about 3e-7 M))”. Further, the “D.O 450 nm” value in assay [3] was found to be 0.112 D.O 450 nm. The MFI in [4] was found to be 2110 MFI; in assay [6] it was 114 MFI. In addition, the “HalfLife (decay of cell-surface bound antibody on MCF-7 at 37°C)” value in assay [5] was 17.9 min (unit from p-0380; none on the sheet). In [7], the “hIGF-1R phosphorylation in response to IGF-1 (western blot, MCF-7)” value was above 80%. Besides, the “% internalisation” value in [9] was 71%. Besides, the ΔMFI in assay [9] amounted to 80 MFI.

B6: c213B10 (antibody, human IgG1, kappa)
heavy: not shown
light: DIQMTQTTSSLSASLGDRVTISCRASQDISKYLNWYQQQPDGTIKLLIYYTSRLHSGVPSRFSGRGSGTDYSLTITNLEQEDIATYFCQQGSALPYTFGGGTKLEIKRTVAAPSVFIFPPSDEQLKSGTASVVCLLNNFYPREAKVQWKVDNALQSGNSQESVTEQDSKDSTYSLSSTLTLSKADYEKHKVYACEVTHQGLSSPVTKSFNRGEC
notes: group G2; also called chimeric 213B10
In [11], B6 gave a Bmax of 2030 MFI and an EC50 of 330 pM. Further, in [12], the “% Internalization (MCF-7, 10 µg/ml, 4 h)” value turned out to be 85% and the ΔMFI was 369 MFI. In assay [13], this molecule had a Bmax of 1100 MFI and an EC50 of 440 pM. Besides, in assay [7], the “hIGF-1R phosphorylation, %” value is below 20%. In assay [9], the “% internalisation” value stood at 73% and the ΔMFI amounted to 101 MFI.
